Test results: paper PMC9181159, “High Nitric Oxide Concentration Inhibits Photosynthetic Pigment Biosynthesis by Promoting the Degradation of Transcription Factor HY5 in Tomato”

Target: T1, HY5 (LONG HYPOCOTYL 5) (Solanum lycopersicum, UniProt Q9SM50 1-158)
T1 sequence: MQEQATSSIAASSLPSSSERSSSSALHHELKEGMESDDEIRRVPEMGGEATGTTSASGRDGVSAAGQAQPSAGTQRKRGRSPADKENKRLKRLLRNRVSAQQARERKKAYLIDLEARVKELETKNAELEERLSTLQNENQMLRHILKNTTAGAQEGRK
Assay: EMSA; no GSNO; LightShift Chemiluminescent EMSA Kit, 20 min at room temperature, 6% native polyacrylamide gel; buffer, salt and pH not stated
Conditions: protein: recombinant; tags: His (pET-32a fusion); chain copies: 2; label: biotin 3' end; blunt

B1: PORC-wt probe (dsDNA)
DNA 1: CAAAATGCAACACGTGATGTATGAAT
DNA 2: ATTCATACATCACGTGTTGCATTTTG
binding result: binds

B2: PSY2-wt probe (dsDNA)
DNA 1: CTGTGATTTACACGTGTCCTCTTTAT
DNA 2: ATAAAGAGGACACGTGTAAATCACAG
binding result: binds
